Assay [1] concerns the target T1, human Bcl-B a.a. 11-175 with C-terminal avi-6his tag (human).
T1 construct: also called BCL2L10
T1 chain: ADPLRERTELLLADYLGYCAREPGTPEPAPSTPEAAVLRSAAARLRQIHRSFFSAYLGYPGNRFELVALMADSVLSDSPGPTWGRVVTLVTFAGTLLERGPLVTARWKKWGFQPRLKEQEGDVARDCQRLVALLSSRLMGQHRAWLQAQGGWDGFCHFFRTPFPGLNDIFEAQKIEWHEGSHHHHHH
The experiment in a line: ratio of the KD of the next tightest BCL2 protein to the KD of the target, BLI.

In assay [2] the target is T2, human Bcl-2 a.a. 1-207 with C-terminal avi-6his tag (human, UniProt P10415 2-207). The experiment in a line: initial BLI screening (column 'Binds target?').
Assay [3] deals with T3, human Bfl-1 a.a. 1-153 (C4S) with C-terminal avi-6his tag (human).
T3 construct: also called A1/Bfl-1
T3 chain: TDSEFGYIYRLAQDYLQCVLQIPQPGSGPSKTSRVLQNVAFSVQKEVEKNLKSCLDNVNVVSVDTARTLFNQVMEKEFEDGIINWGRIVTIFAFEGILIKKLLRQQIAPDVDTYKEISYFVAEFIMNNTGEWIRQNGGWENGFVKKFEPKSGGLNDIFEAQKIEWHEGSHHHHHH
In words: ratio of the KD of the next tightest BCL2 protein to the KD of the target, BLI.

Assay [4] addresses T2, human Bcl-2 a.a. 1-207 with C-terminal …. The experiment in a line: BLI, biotinylated target on streptavidin sensor, range of analyte concentrations. On the technique in general: In BLI a coated tip is dipped into the sample, and binding shifts an interference pattern.
The target of assay [5] is T4, human Bcl-w a.a. 1-182 with C-terminal avi-6his tag (human, UniProt Q92843 1-182).
T4 construct: range 1-182; also called BCL2L2
T4 sequence: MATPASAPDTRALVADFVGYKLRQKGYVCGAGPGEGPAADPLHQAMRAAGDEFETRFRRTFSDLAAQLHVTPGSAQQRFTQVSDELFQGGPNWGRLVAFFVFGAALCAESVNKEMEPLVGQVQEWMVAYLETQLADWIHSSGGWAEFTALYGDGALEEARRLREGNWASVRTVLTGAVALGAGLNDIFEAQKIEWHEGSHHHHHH
The description is as above.

Assay [6] has as its target T5, human Mcl-1 a.a. 172-327 with C-terminal avi-6his tag (human).
T5 chain: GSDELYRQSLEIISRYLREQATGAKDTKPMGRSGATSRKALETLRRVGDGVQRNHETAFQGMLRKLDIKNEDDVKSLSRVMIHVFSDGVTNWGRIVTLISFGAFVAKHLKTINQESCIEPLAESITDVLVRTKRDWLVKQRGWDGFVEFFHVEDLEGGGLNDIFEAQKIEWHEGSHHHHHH
The description is as above.

The target in assay [7] is T3, human Bfl-1 a.a. 1-153 (C4S) with …. The assay is described as above.
For assay [8], the target named is T6, human Bcl-XL a.a. 1-205 with C-terminal avi-6his tag (human, UniProt Q07817 2-206).
T6 construct: also called BCL2L1
The description is as above.
Target sequence in this assay (Q07817 other isoform, or with tags, fused parts or gaps limits assumed): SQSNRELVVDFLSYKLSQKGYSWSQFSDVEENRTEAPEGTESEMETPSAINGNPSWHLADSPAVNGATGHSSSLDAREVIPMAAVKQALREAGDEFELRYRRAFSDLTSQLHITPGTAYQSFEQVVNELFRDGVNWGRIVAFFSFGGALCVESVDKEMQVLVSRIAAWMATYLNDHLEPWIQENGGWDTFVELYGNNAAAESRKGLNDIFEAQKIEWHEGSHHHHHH

In assay [9] the target is T1, human Bcl-B a.a. 11-175 with C-terminal …. Described as above.
Assay [10] addresses T2, human Bcl-2 a.a. 1-207 with C-terminal …. In words: BLI at a single analyte concentration (50 nM, 600 s association, then buffer); biotinylated BCL2 protein on a streptavidin sensor.
Assay [11] has as its target T4, human Bcl-w a.a. 1-182 with C-terminal …. The assay is described as above.
Assay [12] has as its target T5, human Mcl-1 a.a. 172-327 with …. Described as above.
In assay [13] the target is T6, human Bcl-XL a.a. 1-205 with C-terminal …. The assay is described as above.
Assay [14] concerns the target T7, Epstein-Barr virus BHRF1 a.a. 1-161 with C-terminal avi-6his tag (Epstein-Barr virus).
T7 construct: also called EBV BHRF1; BHRF1-biotin
T7 chain: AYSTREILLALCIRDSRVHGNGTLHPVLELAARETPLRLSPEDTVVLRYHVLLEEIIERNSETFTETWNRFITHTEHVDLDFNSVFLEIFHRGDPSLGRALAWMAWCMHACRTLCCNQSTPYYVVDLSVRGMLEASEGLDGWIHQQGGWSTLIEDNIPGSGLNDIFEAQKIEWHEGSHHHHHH
In words: yeast surface display.

Assay [15] deals with T7, Epstein-Barr virus BHRF1 a.a. 1-161 …. In words: yeast display library, FACS sort at 100 nM BHRF1, deep sequencing.
Assay [16] shares this target. In words: yeast display library, FACS sort at 400 nM BHRF1, deep sequencing.
Assay [17] has as its target T5, human Mcl-1 a.a. 172-327 with …. The experiment in a line: yeast surface display titration (apparent KD).

B1: 10-INDI (designed binder)
chain: ADPKKILDKAKDQVENRVRELKQELERLYKEARKLDLTQEMRRKLHVRYIEAMLKAIAAIMNAIAQAENEADKLKKAGLVNSQQLDELRRRLEELTEEAAQKAHDYGRELQLKLEY
notes: also called αBCLB
For B1, in assay [1], the Specificity turned out to be 1010 fold.

B2: 2-CDP01 (designed binder)
chain: ADPKKVLDKAKDQAENVVRKLKQELEELYKEARKLDLTQDMREKIKLRAEAAELQAIGDIFQAILQAKMEAKKLYDAGLVNSQQLDELKRRLEELAKEAEDRAAKLGKEFLQKLEYG
Regarding B2, the binding result in assay [2] is listed as “binds”.

B3: FINDI (designed binder)
chain: ADPKKVLDKAKDQAENRVRELKQKLEELYKEARKLDLTQEKRKKLEVATLGAVLAAHGDILNAIMQAKEEADKLKKAGLVNSQQLDELKRRLEELKEEALRKASDYGNEFHLKRRY
notes: also called αBFL1
B3: the Specificity in [3] is 350 fold. Besides, the Kd came out at 321 nM in assay [4]; 7.4 µM in assay [5]; 1700 nM in assay [6]; 0.91 nM in assay [7]; 900 nM in [8]; 31 µM in assay [9].

B4: 2-CDP03 (designed binder)
chain: ADPKKVLDKAKDQAENRVRELKQKLEELYKEARKLDLTQEMRRELKERALAARLQAVGDIFYAILQAKSEADKLKKAGLVNSQQLDELKRRLEELAEEAQRKARDYGIEFALKLEY
Take B4: the binding result in [2] is on record as “binds”.

B5: 10-CDP01 (designed binder)
chain: ADPKKVLDKAKDQAENRVRELKQELERLYKEARKLDLTQEMRRKLEWRYIAAMLKAIGDILNAIAQAENEADKLKKAGLVNSQQLDELRRRLEELAKEAARKAHDYGREFQLKLEY
notes: also called B-CDP01
Take B5: the Specificity in assay [1] worked out at 0.05 fold. Moreover, the Kd in [4] is 14 nM; in assay [5], 0.9 µM; in assay [6], 0.47 nM; in [7], 250 nM; in assay [8], 16 nM. Besides, the “apparent Kd (pooled screen)” value in [9] was 9 nM.

B6: M-CDP02 (designed binder)
chain: ADPKKVLDKAKDQAENRVRELKQELEELYKEARKLDLTQEERRKLEESYIAAMLRAIGDIFNAIMQAKNEADKLKKAGLVNSQQLDELRRRLEELRKEASLKAEDYGREFQEKLEY
With B6, the binding result in [10], in assay [11], in assay [12] and in assay [13] was “binds” each time.

B7: 10-ECM01 (designed binder)
chain: ADPKKILDKAKDQVENRVRELKQELERLYKEARKLDLTQEMRRKLHVRYIAAMLKAIAAILNAIAQAENEADKLKKAGLVNSQQLDELRRRLEELTEEAAQKAHDYGREFQLKLEYG
Take B7: the Specificity in [1] came to 31 fold. Besides, the Kd in assay [4] is 12500 nM; in assay [5] it was 19 µM; in assay [6], 3650 nM; in assay [7] it was 2380 nM; in assay [8] it was 7800 nM; in [9], 0.077 µM.

B8: 2-CDP07 (designed binder)
chain: ADPKKVLDKAKDDAENRVRELKQKLEELYKEARKLDLTQEERDELKLKAIAASLQASGDIYNAILRALEEARKLKKAGLVNSQQLDELKRRLEELAEEAQRKANKLGDEFRLKLEY
On to B8, for which the binding result in [2] is on record as “binds”.

B9: 2-CDP02 (designed binder)
chain: ADPKKVLDKAKDRAENAVRELKQKLEELYKEARKLDLTQDMRNKLIMKAIAAELRAIGDIFQAILEAKAEAKKLLDAGLVNSQQFDELKRRLEELEEEAAERARKLGDEFRQKLEYG
Regarding B9, the binding result in [2] is “binds”.

B10: Index 47 (designed binder)
chain: GWSADWIKDQAKELMLRAAEEMKKRADEEEKKFKYKQFTTEFLTKATMRWIALALMAIGDVFNVLMWALEWAKRMAKLNQYRKEELEKAKEEAKKLAEKAARRITEIGREAEQKALKG
For B10, in assay [14], the binding result is listed as “no binding”. Also, the results for the Log2 enrichment ratio in assay [15] and in assay [16] were -3.13 log2 and -2.79 log2, respectively.

B11: BbpD04 (designed binder)
chain: ADWKKVLDKAKDIAENRVREIKQKLEEFYKKAMKLDLTQEMRRKLMLEWIAAMLMAIGDIFNAIEQAKQEADKLKKAGQVNSQLLDELKRRLEELKEEASRKCHDYGREFQLKLEY
Take B11: the Kd in assay [17] is 17 nM.

B12: F-CDP01 (designed binder)
chain: ADPKKVLDKAKDQAENRVRELKQKLEELYKEARKLDLTQEMRKKLQYAAIGAMLAAIGDILNAIMQAKQEADKLKKAGLVNSQQLDELKRRLEELKEEALRKAHDYGSEFYLKLEY
For the molecule B12, the Specificity in [3] was determined as 1.8 fold. Also, the Kd in assay [4] worked out at 20 nM; in assay [5] it was 0.59 µM; in [6] it was 4.6 nM; in [8], 9 nM; in assay [9], 210 µM. For the same molecule, the “apparent Kd (pooled screen)” value in [7] worked out at 2.6 nM.

B13: Index 67 (designed binder)
chain: GNRSEEVKELMRELAERVLLKFRWRADEMNKEKDKKYDKEELKRELTEKWIAFALDAIGDLFNAAELAKKLADLFKKGTGFLEERLERRKEEIEKLEEKGSRKVSYEGRREAEKIESG
In the case of B13, the binding result in assay [14] was “no binding”. The values for the Log2 enrichment ratio in assay [15] and in [16] were -3.48 log2 and -3.44 log2, respectively.

B14: Index 15 (designed binder)
chain: GNDRDQIEEYHRERMDEELDRAKKRLEELKKLWEKLDGDDLMKFFWTFKWIAESLKIIGDLFNRLLRTWEFAEALKKGIGFDEKKAEEAKERAYERAAEAAWKAAKLSREMREFLLKG
Turning to B14, the binding result in assay [14] was “no binding”. The Log2 enrichment ratio was -2.77 log2 in assay [15] and -0.71 log2 in [16].

B15: F-ECM04 (designed binder)
chain: ADPKKVLDKAKDQAENRVRELKQKLEELYKEARKLDLTQEMRKKLEVAALGAVLAAHGDILNAIMQAKEEADKLKKAGLVNSQQLDELKRRLEELKEEALRKASDYGKEFHLKRRYG
In the case of B15, the Specificity in assay [3] turned out to be 91 fold. Besides, the Kd in assay [4] turned out to be 100 nM; in assay [5], 3.8 µM; in assay [6], 255 nM; in assay [7] it was 1.1 nM; in assay [8], 540 nM; in assay [9], 4 µM.

These data come from patent US20160376333A1 (University of Washington, published 2016).
